# Measured values from IntAct's records for PubMed 20558380.
# B1: Vang-like protein 2 (Homo sapiens), Q9ULK5 (parent)
# chain: MDTESQYSGYSYKSGHSRSSRKHRDRRDRHRSKSRDGGRGDKSVTIQAPGEPLLDNESTRGDERDDNWGETTTVVTGTSEHSISHDDLTRIAKDMEDSVPLDCSRHLGVAAGATLALLSFLTPLAFLLLPPLLWREELEPCGTACEGLFISVAFKLLILLLGSWALFFRRPKASLPRVFVLRALLMVLVFLLVVSYWLFYGVRILDARERSYQGVVQFAVSLVDALLFVHYLAVVLLELRQLQPQFTLKVVRSTDGASRFYNVGHLSIQRVAVWILEKYYHDFPVYNPALLNLPKSVLAKKVSGFKVYSLGEENSTNNSTGQSRAVIAAAARRRDNSHNEYYYEEAEHERRVRKRRARLVVAVEEAFTHIKRLQEEEQKNPREVMDPREAAQAIFASMARAMQKYLRTTKQQPYHTMESILQHLEFCITHDMTPKAFLERYLAAGPTIQYHKERWLAKQWTLVSEEPVTNGLKDGIVFLLKRQDFSLVVSTKKVPFFKLSEEFVDPKSHKFVMRLQSETSV
# partner: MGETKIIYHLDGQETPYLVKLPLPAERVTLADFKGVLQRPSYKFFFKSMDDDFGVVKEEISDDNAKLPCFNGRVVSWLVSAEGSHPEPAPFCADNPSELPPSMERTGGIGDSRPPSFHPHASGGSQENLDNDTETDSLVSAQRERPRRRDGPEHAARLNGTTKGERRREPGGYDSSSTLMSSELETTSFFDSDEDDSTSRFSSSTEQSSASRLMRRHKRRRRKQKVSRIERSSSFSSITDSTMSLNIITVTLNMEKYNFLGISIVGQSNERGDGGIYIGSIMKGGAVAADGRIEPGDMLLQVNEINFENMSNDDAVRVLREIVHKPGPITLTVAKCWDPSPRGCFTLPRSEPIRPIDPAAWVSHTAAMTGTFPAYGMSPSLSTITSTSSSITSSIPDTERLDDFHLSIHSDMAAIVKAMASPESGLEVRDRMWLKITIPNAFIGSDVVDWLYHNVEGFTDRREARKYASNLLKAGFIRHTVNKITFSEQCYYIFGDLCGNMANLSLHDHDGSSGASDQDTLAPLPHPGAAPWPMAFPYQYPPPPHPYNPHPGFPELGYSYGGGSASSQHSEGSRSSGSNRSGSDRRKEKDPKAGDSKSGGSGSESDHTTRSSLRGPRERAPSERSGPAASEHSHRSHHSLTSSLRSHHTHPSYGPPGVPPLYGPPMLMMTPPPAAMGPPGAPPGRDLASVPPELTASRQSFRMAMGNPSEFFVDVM
# B2: Vang-like protein 2 (Homo sapiens), Q9ULK5 (parent)
# chain: B1 chain
# partner: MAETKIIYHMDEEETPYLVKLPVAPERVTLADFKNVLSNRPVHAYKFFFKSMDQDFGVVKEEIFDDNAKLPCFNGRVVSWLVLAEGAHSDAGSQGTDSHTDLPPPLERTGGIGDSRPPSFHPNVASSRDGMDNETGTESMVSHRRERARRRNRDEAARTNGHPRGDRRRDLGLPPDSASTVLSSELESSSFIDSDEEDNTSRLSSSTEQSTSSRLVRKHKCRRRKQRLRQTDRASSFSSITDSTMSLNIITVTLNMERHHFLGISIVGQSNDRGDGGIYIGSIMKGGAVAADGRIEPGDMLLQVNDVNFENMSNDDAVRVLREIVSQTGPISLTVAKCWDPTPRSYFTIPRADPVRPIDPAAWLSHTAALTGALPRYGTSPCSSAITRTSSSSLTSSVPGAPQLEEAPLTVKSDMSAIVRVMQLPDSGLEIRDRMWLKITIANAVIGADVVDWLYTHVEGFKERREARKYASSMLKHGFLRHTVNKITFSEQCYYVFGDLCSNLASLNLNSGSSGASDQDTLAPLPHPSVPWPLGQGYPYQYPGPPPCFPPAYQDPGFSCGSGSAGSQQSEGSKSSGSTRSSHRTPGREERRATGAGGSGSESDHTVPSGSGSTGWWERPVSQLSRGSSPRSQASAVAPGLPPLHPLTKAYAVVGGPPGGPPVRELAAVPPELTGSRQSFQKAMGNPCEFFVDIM
# B3: Vang-like protein 2 (Homo sapiens), Q9ULK5 (parent)
# chain: B1 chain
# partner: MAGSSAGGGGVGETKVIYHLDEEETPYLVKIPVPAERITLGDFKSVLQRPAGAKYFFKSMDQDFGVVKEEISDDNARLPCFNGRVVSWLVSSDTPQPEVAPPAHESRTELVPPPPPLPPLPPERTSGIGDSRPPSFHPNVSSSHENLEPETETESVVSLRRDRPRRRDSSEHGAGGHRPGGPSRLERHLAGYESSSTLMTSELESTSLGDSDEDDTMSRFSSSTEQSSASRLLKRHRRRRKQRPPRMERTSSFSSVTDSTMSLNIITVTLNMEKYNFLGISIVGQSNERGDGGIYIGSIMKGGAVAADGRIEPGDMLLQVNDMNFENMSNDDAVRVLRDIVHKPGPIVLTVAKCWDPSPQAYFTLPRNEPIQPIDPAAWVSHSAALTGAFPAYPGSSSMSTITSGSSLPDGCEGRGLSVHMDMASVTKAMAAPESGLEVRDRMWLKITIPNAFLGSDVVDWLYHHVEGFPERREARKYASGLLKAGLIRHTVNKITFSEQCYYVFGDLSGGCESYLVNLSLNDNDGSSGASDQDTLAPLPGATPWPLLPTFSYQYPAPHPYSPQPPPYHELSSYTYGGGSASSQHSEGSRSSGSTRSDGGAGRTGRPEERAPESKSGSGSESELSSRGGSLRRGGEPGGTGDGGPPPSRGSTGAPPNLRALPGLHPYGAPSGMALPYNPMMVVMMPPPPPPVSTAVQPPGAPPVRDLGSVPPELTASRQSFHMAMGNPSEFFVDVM
# Variants of: B1
# Conditions: with dvl3_mouse Dvl3, Q61062
row,effect of a mutation on the interaction,Variant
1,disrupting interaction,S464N
2,disrupting interaction,D255E
3,decreasing interaction,R353C
4,disrupting interaction,F437S

# Variants of: B2
# Conditions: with dvl1_mouse Dvl1, P51141
row,effect of a mutation on the interaction,Variant
1,disrupting interaction,F437S
2,disrupting interaction,D255E
3,disrupting interaction,S464N
4,decreasing interaction,R353C

# Variants of: B3
# Conditions: with dvl2_mouse Dvl2, Q60838
row,effect of a mutation on the interaction,Variant
1,disrupting interaction,D255E
2,disrupting interaction,F437S
3,disrupting interaction,S464N
4,decreasing interaction,R353C
